Laboratory results published in patent US7438916B2, “Therapeutic target for protozoal diseases” (priority 2005, dated 2008).

Legend:
[1] = target: T1, FRAP (Plasmodium falciparum, UniProt Q8IL04); assay: Inhibition of FRAP-mediated hemozoin formation; format: biochemical, P. falciparum; conditions: different concentrations, FIG. 14
T1 construct: The activity requires the complete protein as two truncated variants of FRAP; made in house; host or cells: E. coli BL21
Protocol: FIG. 14. Inhibition of FRAP-mediated hemozoin formation by Chloroquine. Hemozoin formation was investigated in the absence or presence of different concentrations of chloroquine, an antimalarial drug with high affinity for heme.
(§1) The standard assay contained in a total volume of 1.0 ml: 500 mM sodium acetate pH 5.2, 300 nmol/ml hemin-Cl (as substrate) and 500 pmol/ml FRAP, as the source of heme polymerase activity. The amount of FRAP added was chosen such that 50% of the substrate was converted into product (insoluble hemozoin) during the assay. The reaction was initiated by protein addition and allowed to proceed for 16 hours at 37 degree. The reaction was terminated by adding 0.01 ml of 10% SDS solution. The reaction tube was centrifuged at 13,000 rpm for 15 minutes at 23 degrees and the supernatant was carefully removed. The pellet, which contained the polymerized and insoluble hemozoin, was resuspended in 1 ml of 0.1 M sodium bicarbonate pH 9.1 containing 2.5% SDS. […] The pellet obtained after final washing was dissolved in 0.3 ml of 0.1 N NaOH and the absorbance of the solution was measured at 405 nm using a spectrophotometer. Amount of heme polymerized was calculated utilizing a standard curve, prepared by dissolving known amounts of commercially available beta-hematin in 0.1 N NaOH. […]

[2] = test system: HepG2 cells; assay: Liver cell binding inhibition assay with glycosaminoglycans; format: cell-based, human; conditions: FIG. 6
Protocol: Liver Cell binding assay: The binding of proteins was assayed on HepG2 cells as described previously (1, 31). Briefly, cells were plated at a density of 25,000 cells/well, in a 96 well plate, 36 hours before the start of the experiment. The cells were fixed with paraformaldehyde, blocked with 1% BSA, followed by the addition of equimolar concentrations of recombinant proteins. Bound protein was detected using anti-polyhistidine tag monoclonal antibody (1:10,000) and anti-mouse antibody conjugated to alkaline phosphatase (1:2000). Amount of bound protein was detected by using 4-methylumbelliferyl phosphate, a fluorescent substrate, and measurement of fluorescence using a fluorescent plate reader (Molecular Devices, CA) with excitation and emission set at 350 nm and 460 nm respectively. Results are shown as mean±standard deviation of mean of a representative experiment performed in triplicate. Binding inhibition assays were performed by combining the recombinant proteins with increasing amounts of glycosaminoglycans and incubating at 37° C. for 15 min. For enzyme treatment, cells were incubated with different concentrations of Heparinase I or Chondroitinase ABC for 90 minutes at 37° C. as previously described (31), before the addition of proteins. The bound protein was assayed as described above. […]

[3] = test system: heme; assay: FRAP-mediated hemozoin formation assay; format: biochemical; conditions: result in words
Protocol: FIG. 8. FRAP-mediated neutralization of toxic heme into non-toxic Hemozoin. 500 pmoles of each of the protein was incubated with different concentrations of free heme at 37° C. for 16 hours, under acidic conditions (500 mM Sodium acetate pH 5.2). After 16 hours, free heme was removed by washing and the insoluble pellet representing hemozoin was solubalized in sodium hydroxide and estimated using a spectrophotometer.
as §1, with “degree.” for “degree. The reaction was terminated by adding 0.01 ml of 10% SDS solution. The reaction tube was centrifuged at 13,000 rpm for 15 minutes at 23 degrees and the supernatant was carefully removed. The pellet, which contained the polymerized and insoluble hemozoin, was resuspended in 1 ml of 0.1 M sodium bicarbonate pH 9.1 containing 2.5% SDS.”
Furthermore, the hemozoin formation was also evaluated with truncated variants and point mutants of FRAP to not only describe its structural requirements, but also pin point the residues that are involved in the polymerization process.

[4] = test system: P. falciparum sporozoites; assay: Sporozoite invasion assay; format: cell-based, P. falciparum (strain NF54); conditions: versus culture medium
Protocol: Sporozoite Invasion Assay: Invasion assay was performed with HepG2 (Human hepatoma) cells as previously described (31). Briefly, HepG2 cells were plated (50,000 cells/0.3 ml) and incubated overnight at 37° C. in a CO2 incubator. Next day, medium was removed and 50 μl of diluted FRAP proteins (final concentrations: 20 and 10 μg/ml) or anti-FRAP2 antibodies (40 μg/ml final concentration) were added per well. Anti CS monoclonal antibody NFS1 was used at a final concentration of 100 μg/ml. All protein concentrations and serum dilutions were evaluated in triplicate. This was immediately followed by the addition of 20,000 sporozoites in 50 μl of medium to each well. P. falciparum (strain NF54) sporozoites were obtained from the salivary glands of An. stephensi mosquitoes as described by Ozaki (33). The sporozoites were allowed to invade liver cells for three hours followed by the washing of cells with PBS at pH 7.4. Subsequently, the cells were fixed with cold methanol. Sporozoites were visualized by immunostaining using NFS1 as primary antibody and anti-mouse IgG-peroxidase conjugate. The slides were mounted with Paramount and only intracellular sporozoites were counted as described (31). Percentage inhibition of invasion was calculated with the following formula: [(Control-test)/control]×100 Results

[5] = test system: HepG2 cells; assay: Liver cell binding assay; format: cell-based, human; conditions: FIG. 5
Protocol: (§2) Liver Cell binding assay: The binding of proteins was assayed on HepG2 cells as described previously (1, 31). Briefly, cells were plated at a density of 25,000 cells/well, in a 96 well plate, 36 hours before the start of the experiment. The cells were fixed with paraformaldehyde, blocked with 1% BSA, followed by the addition of equimolar concentrations of recombinant proteins. Bound protein was detected using anti-polyhistidine tag monoclonal antibody (1:10,000) and anti-mouse antibody conjugated to alkaline phosphatase (1:2000). Amount of bound protein was detected by using 4-methylumbelliferyl phosphate, a fluorescent substrate, and measurement of fluorescence using a fluorescent plate reader (Molecular Devices, CA) with excitation and emission set at 350 nm and 460 nm respectively. Results are shown as mean±standard deviation of mean of a representative experiment performed in triplicate. Binding inhibition assays were performed by combining the recombinant proteins with increasing amounts of glycosaminoglycans and incubating at 37° C. for 15 min. For enzyme treatment, cells were incubated with different concentrations of Heparinase I or Chondroitinase ABC for 90 minutes at 37° C. as previously described (31), before the addition of proteins. The bound protein was assayed as described above.
Therefore, binding activity was probed using a polyhistidine tag monoclonal antibody. […]

[6] = test system: HepG2 cells; assay: Binding to liver cells pretreated with glycosaminoglycan cleaving enzyme; format: cell-based, human; conditions: for Inhibition of Binding (%): 100 nM protein
Protocol: as §2
The involvement of HSPG as a receptor was further verified by evaluating the binding of the protein on liver cells that were pretreated with specific glycosaminoglycan-cleaving enzymes. Cells were pre-treated with heparinase I or chondroitinase ABC followed by the evaluation of binding activity of FRAP and FRAP2. Heparinase I selectively removes heparan sulfate while chondroitinase ABC cleaves chondroitin sulfate A, B and C type sugars from the liver cell surface. Both, FRAP and FRAP2 lost 50% of their binding activity on heparinase I treated cells (Table 4) confirming the involvement of a heparin-based receptor on the liver cell surface.

T1 sequence (Q8IL04 whole entry, the tested form may be a part): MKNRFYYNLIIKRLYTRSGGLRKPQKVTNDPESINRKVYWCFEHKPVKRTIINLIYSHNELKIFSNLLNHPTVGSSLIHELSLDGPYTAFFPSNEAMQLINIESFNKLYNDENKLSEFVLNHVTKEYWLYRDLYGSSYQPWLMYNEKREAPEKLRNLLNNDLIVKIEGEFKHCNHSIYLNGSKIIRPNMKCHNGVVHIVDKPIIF

## CCN(CC)CCCC(C)Nc1ccnc2cc(Cl)ccc12 (centres unmarked) [Chloroquine, chloroquine]
[1]
  inhibition of FRAP-mediated hemozoin formation: inhibited heme polymerization in a dose dependent manner
[1]; listed as chloroquine
  inhibition of FRAP-mediated hemozoin formation: effectively inhibited

## chondroitin sulfate A [reference compound]
[2]; highest concentration evaluated
  inhibition of FRAP and FRAP2 binding to liver cells by the glycosaminoglycan: no inhibition

B1: FRAP from rodent malaria parasite P. yoelii: P. yoelii FRAP ortholog, SEQ ID NO: 9 (protein, listed as Plasmodium yoelii)
chain: MKKKLYNLVLKRSYTRSGGLRKPQKVTNDPESINRKVYWCFEHKPVRRTVINLIFSHNELKNFSTLLRNTNASSSLIHELSLEGPYTGFLPSDEALNLLSTNSLNKLYKDDNKMSEFVLNHFTKGLWMYRDLYGSSYQPWLMYNEKREAPEKIQTLVNNDIIVKIEGEFKNCDHSIYLNEAKIIRPNMKCHNGIIHIIDKPIIF
[3]
  hemozoin formation (heme polymerization) activity: demonstrated

B2: FRAP2: truncated FRAP containing only amino acids 1-87, SEQ ID NO: 25 (protein, listed as Plasmodium falciparum)
chain: MKNRFYYNLIIKRLYTRSGGLRKPQKVTNDPESINRKVYWCFEHKPVKRTIINLIYSHNELKIFSNLLNHPTVGSSLIHELSLDGPY
[4]; 10 μg/ml
  % Inhibition of invasion of HepG2 cells by P. falciparum sporozoites: 88.1 ± 4.6%
[4]; 20 μg/ml
  % Inhibition of invasion of HepG2 cells by P. falciparum sporozoites: 92.4%
[5]
  loss of binding activity in comparison to the full length protein: 50%
[5]; five concentrations of recombinant protein
  binding on liver cells: only half the strength
[3]
  hemozoin formation (heme polymerization) activity: did not show any hemozoin formation
[2]; HepG2 cells
  reduction of binding activity in the presence of free heparin: 60%
[6]; cells pretreated with Heparinase I 1.25 U/ml for 90 minutes
  Inhibition of Binding (%): 42.3 ± 10.4%
[6]; cells pretreated with Heparinase I 2.50 U/ml for 90 minutes
  Inhibition of Binding (%): 41.4 ± 1.5%
[6]; cells pretreated with Heparinase I 5.00 U/ml for 90 minutes
  Inhibition of Binding (%): 49.4 ± 9.2%
[6]; text summary of Table 4
  loss of binding activity on heparinase I treated cells: 50%
